The values below come from a protein production outcome set (Wang et al. 2014).
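Note: failed if final PepcDB status was selected cloned or expressed and not failed if soluble or beyond.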

A short description of the data set: label from the status in PepcDB records.
Regarding “SLTMDVPPTIHVPLPPTSYPAFDAAIFTDIGGRKHQEDRFTLCPQLVPGRDDCAFFGVFDGTVGDFASENVKDLVVPQLISSPAWQEVTEMLRSDVPATEVDEKLPQLLDQAVDDMYKNADNELVKMCEQLNKDYASSTSVTAVLAKGFVAVGHLGDSRIAMGVETPNGLNCEFLTVDHKPDMPHEKLRIMRNGGSVEYLHNHNNKPFIRGGDFSFRKSRGEQPMQLQYSRAFGGKDLKMYGLSNQPDVRVVRVTPQHRVMILATDGLWDVMSAAQAVEIAMQARQEGRNPAQALVEMTLAEQQSRNQSADNITAMTVFFKKTD”, the protein production result is reported as “not failed”. As to “SNDQYHRAARDGYLELLKEATRKELNAPDEDGMTPTLWAAYHGNLESLRLIVSRGGDPDKCDIWGNTPLHLAASNGHLHCLSFLVSFGANIWCLDNDYHTPLDMAAMKGHMECVRYLDSIAAKQSSLNPKLVGKLKDKAFREAERRIRECAKLQRRHHERMERRYRRELAERSDTLSFSSLTSSTLSRRLQHLALGSHLPYSQATLHGTARGKTKMQKKLERRKQGGEGTFKVSEDGRKSARSLSGLQLGSDVMFVRQGTYANPKEWGRAPLRDMFLSDEDSVSRATLAAEPAHSEVSTDSGHDSLFTRPGLGTMVFRRNYLSSGLHGLGREDGGLDGVGAPRGRLQSSPSLDDDSLGSANSLQDRSCGEELPWDELDLGLDEDLEPETSPLETFLASLHMEDFAALLRQEKIDLEALMLCSDLDLRSISVPLGPRKKILGAVRRRRQAMERPPALEDTEL”, the protein production result is on record as “not failed”.

“SNQEKLQRTMIHFNNPEVQAFLAVNTFTITGHGETKQLTEMLRSVLNQLAAVSLTSLRRLAEALPKQSVDGKAPLATGEDDDDDEVPGIMENFDEASKNEAN”: the protein production entry is recorded as “failed”. As to “SNRLPDDYDPYAVEEPSDEEPALSSSEDEVDVLLHGTPDQKRKLIRECLTGESESSSEDEFEKEMEAELNSTMKTMEDKLSSLGTGSSSGNGKVATAPTRYYDDIYFDSDSEDEDRAVQVTKKKKKKQHKIPTNDELLYDPEKDNRDQAWVDAQRRGYHGLGPQRSREQQPVPNSDAVLNCPACMTTLCLDCQRHESYKTQYRAMFVMNCSINKEEVLRYKASENRKKRRVHKKMRSNQEDAAEKAETDVEEIYHPVMCTECSTEVAVYDKDEVFHFFNVLASHS”, the protein production entry was “not failed”. The same measure for “SPARPFTVRAPASSANLGPGFDSLGLSVPLYTTLRVTPQDKAEVVPLGTELADTPADESNYVYRAMTLAAKRAGRTLPPARVEIETEVPLARGLGSSAAALVAGVVAGNELLGRPLDDETVLDVTAREEGHPDNVAPALFGGIVVATLDKLGTHY”: “failed”. For “SPINPYKDHMSVLKAYYAMNMEPNSDELLKISIAVGLPQEFVKEWFEQRKVYQYSNSR” the value was “not failed”. The same measure for “SPKMDVHETDHEVILECDIPGLESKEDLQIDVEPRSVRIEGRIKRSKEVHDERFYRREREIGHFRRVVPLPAEVAEDDIRAAYRNGVLEVRMRKRLDDRRRTIDVEFH”: “failed”; for “SQIYASDGETELARIVPPEGNRQMVTIDQVPDTVKNAVVAAEDREFYTNPGFSITGYARAALGVITGDSSAGGGSTITQQYVKKAVVGDERSLIRKAKELVYSAKMANEWSKDEVLEAYLNTVYFGRNAYGVQAAAHAFFDKPVEELTAAEGAVLAASIQLPSQLDPWTNP”: “failed”. As to “SREPVDILREQKINAEWALKQQSDKLAAQFDNMDDAYLRERKQDMLQVVRRIHNNLIGQGNELEVADNLFDETVLIANDLSPADTVLFKEQR”, the protein production result is recorded as “failed”.

Take “SRFLVLGGAGSIGQAVTKEIFKRNPKKLHVVDISENNMVELVRDIRSSFGYIDGDFQTFALDIGSLEYDAFIKADGKFDYVLNLSALKHVRSEKDPYTLMRMIDVNVFNTDKTIQQSIDAGAKKYFCVSTDKAANPVNMMGASKRIMEMFLMRKSEQIAISTARFANVAFSDGSLLHGFNQRIQKRQPIVAPND”: the protein production result is “failed”. The same measure for “SRIEERKAIIGLYNYAHEMTHGASDREYPRLGQMIVDYENPLKKMMEEFVPHSKSLSDALISLQMVYPRRNLSADQWRNAQLLSLISAPSTMLNPAQSDTMPCEYLSLDAMEKWIIFGFILCHGILNTDATALNLWKLALQSSSCLSLFRDEVFHIHKAAEDLFVNIRGYNKRINDIRECKEAAVSHAGSMHRERRKFLRSALKELATVLSDQPGLLGPKALFVFMALSFARDEIIWLLRHADNMPKKSADDFIDKHIAELIFYMEELRAHVRKYGPVMQRYYVQYLSGFDAVVLNELVQNLSVCPEDESIIMSSFVNTMTSLSVKQVEDGEVFDFRGMRLDWFRLQAYTSVSKASLGLADHRELGKMMNTIIFHTKMVDSLVEMLVETSDLSIFCFYSRAFEKMFQQCLELPSQSRYSIAFPLLCTHFMSCTHELCPEERHHIGDRSLSLCNMFLDEMAKQARNLITDICTEQCTLSDQLLPKHCAKTISQAVN”: “failed”; for “SRLPKSPPYTAFLGNLPYDVTEESIKEFFRGLNISAVRLPREPSNPERLKGFGYAEFEDLDSLLSALSLNEESLGNKRIRVDVADQAQDKD”: “not failed”; for “SRPATPPVTPPSREGHVADLDRFPQDLRVYAMKAGADRQLLPFTEQAAQDARWNRRFFAPWRMTRISVPVKDVAAPFGTDGRPRGYAENLLPWDVTRWGALASGAALDLYPSQAWKGIVVSNSALREVPTLRPMFTAPTRAGQGYPFDMFQRTAVWMGTPVFVGHATADRAWLYVETAFAAGWMPAADVARVDDAFMTRYESGSLAAILRDDTSLNGADGTHLATAHIGTVLPLSGASQVGRTVLVPVRAPEGHAVVVPVLLTSGEAAQKPVPLTPGNMAELGNRMMGQPYGWGGLYEDRDCSSTLRDLFTPFGLWLPRNSASQAKAGRYVDIAKLDADDKEARIVAEGVPFMTLLWLRGHITLYLGLHEGQAAMFHNMWGIRTHRGGVEGRYVLGRAVVTSTRPGLDVPGNDNADGLLGRMQGMSILPGGAQ”: “not failed”.

Turning to “SSAHMSGLEIMDEDQLIKDVLDKFLNCHEQTYDEEFLNTFTHLSQDLLLLPGEVEQDVSTSIPSCIPFVAQPPTCEVKPKPSVKRMDKQTEEILGDEVQLFSLDEEFDYDNVMLTSKFSPAEIENIKELCKQQKRKDTSPDLEKSCD”, the protein production result is “failed”. Turning to “SSANEDQEMELEALRSIYEGDESFRELSPVSFQYRIGENGDPKAFLIEISWTETYPQTPPILSMNAFFNNTISSAVKQSILAKLQEAVEANLGTAMTYTLFEYAKDNKEQFMENHNPINSATSISNIISIETPNTAPSSKKKDKKEQLSKAQKRKLADKTDHKGELPRGWNWVDVVKHLSKTGSKDDE”, the protein production result was “failed”. The same measure for “SSEAKKGHVLFFPYPLQGHINPMIQLAKRLSKKGITSTLIIASKDHREPYTSDDYSITVHTIHDGFFPHEHPHAKFVDLDRFHNSTSRSLTDFISSAKLSDNPPKALIYDPFMPFALDIAKDLDLYVVAYFTQPWLASLVYYHINEGTYDVPVDRHENPTLASFPGFPLLSQDDLPSFACEKGSYPLLHEFVVRQFSNLLQADCILCNTFDQLEPKVVKWMNDQWPVKNIGPVVPSKFLDNRLPEDKDYELENSKTEPDESVLKWLGNRPAKSVVYVAFGTLVALSEKQMKEIAMAISQTGYHFLWSVRESERSKLPSGFIEEAEEKDSGLVAKWVPQLEVLAHESIGCFVSHCGWNSTLEALCLGVPMVGVPQWTDQPTNAKFIEDVWKIGVRVRTDGEGLSSKEEIARCIVEVMEGERGKEIRKNVEKLKVLAREAISEGGSSDKKIDEFVALLT”: “failed”; for “SSGVIAFDEGFRVTTVNQGAQTILQADLRSVIGRPLETVDGMLEFAQVVRQAFAAHAAVGSERLHWQQQFEITPGLDETGGQPVTLLARGTHLRVD”: “failed”.

Regarding “SSISQQTIAETDGDSAGSDSFPVGRTHHRWYLCHFGQSLIHVIQVVIGYFIMLAVMSYNTWIFLGVVLGSAVGYYLAYPLLSTA”, the protein production entry is “failed”. Consider “SSKELLMKLRRKTGYSFVNCKKALETCGGDLKQAEIWLHKEAQKEGWSKAA”, for which the protein production entry is recorded as “not failed”. The same measure for “SSSSCTVTTGTLGFGDKFKRPIGSWECSVCCVSNNAEDNKCVSCMSEKPG”: “not failed”. For the sequence “STGESSSVSERGSLKQQLREYIRWEEAARNLLGLIEAKENRNHQPPQPKALGNQQPSWDSEDSSNFKD”, the protein production result is listed as “failed”. For “STGNGWFAGFPIFSWYFGRDGLWMGLAANTVGMSHLTREHMRTLLIYSKDGRIPHEIGLSNDGMQSYSISDRIFNTMYMSIDSSLLWLLSNKSLENWESKGFEHDNVTRVFKFASSCDSDGDGLLENNFSDGLIGWPETWANIRNGKAVDINALWVKTVELYSNELNIANAEELKKKYLESFFSNVSFTDFIDNSGYAKSVKSAMQFVPGIFFTNNNIVETIKQLAEGNLTPWGVRSVSVDDPMFDGGYHTGTVWPLMTGWFVLSAYKNGLKDIAFKQLMTFSELAFSSPDLGRINETYDSMIANPTGQFAQGWSSSMLVLSVMQGLLGIDSIEF” the value was “failed”; for “STIIYIKDLNGRYTLVNNKYCEVLGIERRKIIGAMDFELFQPPLAELYQQNDQRANNSHDALHFEEPIPTPRGEIIYHMTKFDIRDDE”, “failed”. The same measure for “STTEEESLSAAEEGYNVQRDYWRQAEESDGFDIENIKLPPGMHGRVMGLITYNCQLCYRYPFPVLVKLYAKFGLHRYNLIKGTSFELAALMKFNMLQNYMSSFYMTLLAHDPDPAASSSQKTFQVRVDEQQFGTLGINCSIARPKHEGDLLEVSTKTPFIPHFHGGALGDGIFKGELPDCLSDDALNALMEAVSKDELPEHVLDDALYARAGGIFQGELPDWPSDDALNDGKRFYMLKESEWQATDWISMYLELVITTTDRSITEPEVLSKLEIVKVAIETATKDEEPSNERLKAYRAHFYITFKGLAEPRAPRQVFEIGEHVERQAIVRRVMGHRGDLTLKGKLCGGQYIKRRSLALKSGEESPNCKKQTRVG”: “failed”. For “SVQEAPAALPTEPGPSPVPAFLGKLWALVGDPGTDHLIRWSPSGTSFLVSDQSRFAKEVLPQYFKHSNMASFVRQLNMYGFRKVVSIEQGGLLRPERDHVEFQHPSFVRGREQLLERVRRKVPALRGDDGRWRPEDLGRLLGEVQALRGVQESTEARLRELRQQNEILWREVVTLRQSHGQQHRVIGKLIQCLFGPLQAGPSNAGGKRKLSLMLDEGSSCPTPAKFNTCPLPGALLQDPYFIQSPLPETNLGLSPHRARGPIISDIPEDSPSPEGTRLSPSSDGRREKGLALLKEEPASPGGDGEAGLALAPNECDFCVTAPPPLPVAVVQAILEGKGSFSPEGPRNAQQPEPGDPREIPDRGPLGLESGDRSPESLLPPMLLQPPQESVEPAGPLDVLGPSLQGREWTLMDLDMELSLMQPLVPERGEPELAVKGLNSPSPGKDPTLGAPLLLDVQAALGGPALGLPGALTIYSTPESRTASYLGPEASPSP” the value was “not failed”; for “SVSAGVQAVESILDREEIRRVILVGAGTGAGVALEIAKNQPRRVERLVLDSPLVTFDEKQLKGMSTALKMMPGFFFRKKNKKDLLQQVEEARTAVPMGFSEITMPTLIIRGSAAKAGIDSDLEKQIPSARATTIIGANWLTYTTHGRQTGAAIAEFLAQ”, “failed”. As for “SVVAKVKIPEGTILTMDMLTVKVGEPKGYPPEDIFNLVGKKVLVTVEEDDTIMEELVDNHGKKIKS”, the protein production entry was “not failed”. The same measure for “SYDYQSAFDIIGPVMMGPSSSHTAGAVKIGNSARAVLGDMPKHIEIRYYESFAKTHQGHGTDVAIVGGAMGYSTFDSRIKSSLDIAKDENITIDIIEDEGESIGQHPNCAYIKANTKDGRYIEVIGISIGGGTIKLKGINVNGLNVELNHG”: “failed”; for “TARLVAGLEDVQVYDGEDAVFSLDLSTIIQGTWFLNGEELKSNEPEGQVEPGALRYRIEQKGLQHRLILHAVKHQDSGALVGFSCPGVQDSAALTIQES”: “not failed”.
